Measured values reported in US20240182536A1 (MURAL ONCOLOGY, published 2024).
Where two headings read alike, the source gives them in different places.

B1: IL-18 variant G3A, N91L, K53S (ligand)
chain: YFAKLESKLSVIRNLNDQVLFIDQGNRPLFEDMTDSDMRDNAPRTIFIISMYSDSQPRGMAVTISVKSEKISTLSSENKIISFKEMNPPDLIKDTKSDIIFFQRSVPGHDNKMQFESSSYEGYFLASEKERDLFKLILKKEDELGDRSIMFTVQNED
B2: human IL-18 variant G3V/M60K (ligand)
chain: YFVKLESKLSVIRNLNDQVLFIDQGNRPLFEDMTDSDMRDNAPRTIFIISMYKDSQPRGKAVTISVKSEKISTLSSENKIISFKEMNPPDNIKDTKSDIIFFQRSVPGHDNKMQFESSSYEGYFLASEKERDLFKLILKKEDELGDRSIMFTVQNED
B3: human IL-18 variant G3V/E6K/K53A (ligand)
chain: YFVKLKSKLSVIRNLNDQVLFIDQGNRPLFEDMTDSDMRDNAPRTIFIISMYADSQPRGMAVTISVKSEKISTLSSENKIISFKEMNPPDNIKDTKSDIIFFQRSVPGHDNKMQFESSSYEGYFLASEKERDLFKLILKKEDELGDRSIMFTVQNED
B4: IL-18 variant G3R, N91A, K53S (ligand)
chain: YFRKLESKLSVIRNLNDQVLFIDQGNRPLFEDMTDSDMRDNAPRTIFIISMYSDSQPRGMAVTISVKSEKISTLSSENKIISFKEMNPPDAIKDTKSDIIFFQRSVPGHDNKMQFESSSYEGYFLASEKERDLFKLILKKEDELGDRSIMFTVQNED
notes: also called G3R/K53S/N91A
B5: IL-18 variant G3K, N91I, K53S (ligand)
chain: YFKKLESKLSVIRNLNDQVLFIDQGNRPLFEDMTDSDMRDNAPRTIFIISMYSDSQPRGMAVTISVKSEKISTLSSENKIISFKEMNPPDIIKDTKSDIIFFQRSVPGHDNKMQFESSSYEGYFLASEKERDLFKLILKKEDELGDRSIMFTVQNED

Legend:
[1] = target: T1, human IL-18 binding protein (IL-18BP) (human, UniProt O95998 31-194); experiment: Octet BLI
T1 construct: also called hu IL-18BP; hIL18BP
T1 sequence (looked up): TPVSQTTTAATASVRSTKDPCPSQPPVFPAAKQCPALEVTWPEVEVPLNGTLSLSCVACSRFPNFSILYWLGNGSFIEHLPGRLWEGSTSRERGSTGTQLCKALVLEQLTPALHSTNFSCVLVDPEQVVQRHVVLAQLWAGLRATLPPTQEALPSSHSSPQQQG
Experimental: Octet 96red instrument was used to determine affinities of IL18 proteins to BP or receptors. 5-10 ug/ml analyte proteins were used for loading on Sartorius tips (AHC or SA). […] 120-180 s loading, 200 s association and 800 s dissociation were used for kinetics. 3-7 data points were used to calculate affinities.
Select G3/K53-substitution containing IL-18 variants and select G3/K53/N91-substitution containing TL-18 variants were tested for activity in the HEK-blue activity assay and for binding affinity to IL-18BP. As shown in the data of Table 15 and Table 16 below, each variant had similar or better activity than WT IL-18, and retained substantial activity in the presence of IL-18BP.

[2] = target: T2, IL-18 receptors on HEK-Blue IL-18 reporter cells (InvivoGen) (UniProt Q13478 19-541; O95256 20-599); experiment: cell-based or functional assay
T2 sequence (looked up) 1: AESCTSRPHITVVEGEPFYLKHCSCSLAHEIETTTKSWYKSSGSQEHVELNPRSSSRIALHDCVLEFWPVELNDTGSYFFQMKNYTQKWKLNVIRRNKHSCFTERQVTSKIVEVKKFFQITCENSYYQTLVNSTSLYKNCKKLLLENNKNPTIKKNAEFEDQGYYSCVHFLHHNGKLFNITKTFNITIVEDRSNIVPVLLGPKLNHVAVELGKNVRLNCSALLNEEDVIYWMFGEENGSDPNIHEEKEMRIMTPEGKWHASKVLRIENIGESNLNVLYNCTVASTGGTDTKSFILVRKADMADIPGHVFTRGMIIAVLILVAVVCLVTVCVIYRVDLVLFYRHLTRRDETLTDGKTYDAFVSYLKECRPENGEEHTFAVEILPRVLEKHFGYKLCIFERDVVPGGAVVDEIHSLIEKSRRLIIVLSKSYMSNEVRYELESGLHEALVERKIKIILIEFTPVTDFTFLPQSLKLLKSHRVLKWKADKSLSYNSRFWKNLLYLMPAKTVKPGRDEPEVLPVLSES
T2 sequence (looked up) 2: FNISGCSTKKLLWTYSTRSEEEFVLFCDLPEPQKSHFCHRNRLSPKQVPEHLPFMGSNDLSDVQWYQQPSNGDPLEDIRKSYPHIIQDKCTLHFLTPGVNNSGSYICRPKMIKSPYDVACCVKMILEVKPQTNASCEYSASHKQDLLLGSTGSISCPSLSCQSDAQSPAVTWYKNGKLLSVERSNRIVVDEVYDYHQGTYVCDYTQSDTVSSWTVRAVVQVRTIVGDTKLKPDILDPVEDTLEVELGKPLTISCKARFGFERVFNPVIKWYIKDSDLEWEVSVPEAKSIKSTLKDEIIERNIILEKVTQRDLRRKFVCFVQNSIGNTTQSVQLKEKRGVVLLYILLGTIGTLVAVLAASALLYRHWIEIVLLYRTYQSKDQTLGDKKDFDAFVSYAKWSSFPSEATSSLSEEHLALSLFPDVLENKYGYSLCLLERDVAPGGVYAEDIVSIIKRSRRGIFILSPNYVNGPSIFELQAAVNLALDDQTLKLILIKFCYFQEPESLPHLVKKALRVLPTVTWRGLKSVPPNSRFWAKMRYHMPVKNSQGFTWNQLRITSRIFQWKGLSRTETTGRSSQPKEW

[3] = target: T1, human IL-18 binding protein (IL-18BP); experiment: cell-based or functional assay
[4] = target: T3, IL-18 receptors on HEK-Blue IL-18 reporter cells (UniProt Q13478 19-541; O95256 20-599, limits assumed); experiment: cell-based or functional assay
T3 sequence (looked up) 1: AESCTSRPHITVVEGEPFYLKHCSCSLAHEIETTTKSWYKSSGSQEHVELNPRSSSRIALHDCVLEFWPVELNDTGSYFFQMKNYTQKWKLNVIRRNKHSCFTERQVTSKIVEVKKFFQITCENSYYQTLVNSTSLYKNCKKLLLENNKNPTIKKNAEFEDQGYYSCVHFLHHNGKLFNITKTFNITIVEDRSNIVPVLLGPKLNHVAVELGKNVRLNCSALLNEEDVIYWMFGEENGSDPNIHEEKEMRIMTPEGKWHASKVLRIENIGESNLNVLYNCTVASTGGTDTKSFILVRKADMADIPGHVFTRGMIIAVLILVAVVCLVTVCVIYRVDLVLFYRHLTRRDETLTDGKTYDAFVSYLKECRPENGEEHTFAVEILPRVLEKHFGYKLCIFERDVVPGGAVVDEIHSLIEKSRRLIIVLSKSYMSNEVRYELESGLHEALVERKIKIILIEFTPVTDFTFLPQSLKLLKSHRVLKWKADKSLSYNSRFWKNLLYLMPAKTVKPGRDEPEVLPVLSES
T3 sequence (looked up) 2: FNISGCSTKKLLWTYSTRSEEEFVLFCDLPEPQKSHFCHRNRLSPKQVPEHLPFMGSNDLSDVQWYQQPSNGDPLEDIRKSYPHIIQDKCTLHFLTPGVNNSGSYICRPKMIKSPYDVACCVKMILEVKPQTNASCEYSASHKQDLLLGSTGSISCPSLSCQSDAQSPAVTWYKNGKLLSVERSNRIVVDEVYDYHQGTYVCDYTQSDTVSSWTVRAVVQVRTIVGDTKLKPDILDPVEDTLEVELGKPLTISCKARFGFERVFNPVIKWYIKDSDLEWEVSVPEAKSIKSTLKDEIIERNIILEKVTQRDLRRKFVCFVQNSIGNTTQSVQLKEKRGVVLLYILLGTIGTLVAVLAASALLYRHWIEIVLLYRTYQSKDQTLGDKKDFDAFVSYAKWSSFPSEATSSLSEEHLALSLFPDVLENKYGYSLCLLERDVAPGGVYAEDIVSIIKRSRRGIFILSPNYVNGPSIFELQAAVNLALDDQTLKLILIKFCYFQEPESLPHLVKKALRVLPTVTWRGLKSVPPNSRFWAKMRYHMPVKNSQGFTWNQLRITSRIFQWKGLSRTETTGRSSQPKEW

[5] = target: T4, human IL-18 binding protein (human, UniProt O95998 31-194); experiment: cell-based or functional assay
T4 sequence (looked up): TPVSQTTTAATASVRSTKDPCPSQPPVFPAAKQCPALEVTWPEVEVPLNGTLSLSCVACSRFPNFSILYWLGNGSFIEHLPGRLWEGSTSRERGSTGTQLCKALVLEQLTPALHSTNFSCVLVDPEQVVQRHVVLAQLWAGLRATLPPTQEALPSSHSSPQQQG

[6] = target: T3, IL-18 receptors on HEK-Blue IL-18 …; experiment: cell-based or functional assay; remark: listed apart in the source
[7] = target: T4, human IL-18 binding protein; experiment: cell-based or functional assay; remark: listed apart in the source

Row | Binder | Kd [1] [nM] | koff [1] [s⁻¹] | kon [1] [M⁻¹ s⁻¹] | HEK-Blue Ec50 (pM), -IL-18BP [2] [pM] | HEK-Blue Ec50 (pM), +IL-18BP (50 nM) [3] [pM] | HEK-blue EC50 (pM) - BP [4] [pM] | HEK-blue EC50 (pM) + 300 nM BP [5] [pM] | HEK-blue EC50 (pM) - BP [6] [pM] | HEK-blue EC50 (pM) + 1000 nM BP [7] [pM]
1 | B1 | 4.8 | 0.00103 | 216000 | 0.71 | 5.82 | – | – | – | –
2 | B2 | – | – | – | – | – | 0.042 | 0.507 | 1.43 | 1.05
3 | B3 | – | – | – | – | – | 0.038 | 1.68 | 0.05 | 1.26
4 | B4 | 3.4 | 0.000728 | 213000 | 0.25 | 2.27 | – | – | – | –
5 | B5 | 1.9 | 0.000406 | 218000 | 0.2 | 7.05 | – | – | – | –
